In patent US7414023B2, “Peptide ligands for prostate specific antigen” (Licentia Ltd., priority 2000, dated 2008):
Bridge positions count the residues as written; N and C are the ends. Square brackets hold non-standard residues; d marks the D form. Ends that are not written are not given here. Peptide text beside a SMILES is read from it. Ahx = NCCCCCC(=O)O

Key:
PSA [1] = target: T1, PSA (Homo sapiens, UniProt P07288); experiment: Enzyme activity of PSA with chromogenic substrate S-2586; assay type: biochemical; parameters: PSA was purified from human seminal fluid as described previously (3); from tissue; host or cells: human seminal fluid; settings: for effect of derivatization or labeling on PSA binding activity, read as effect on PSA enzyme activity (in words): PSA (0.33 mM / 0.33 μM as printed); for effect of derivatization or labeling on PSA binding activity, read as effect on PSA enzyme activity (in words) / effect on the enzyme activity of PSA (in words): S-2586; for effect on the enzyme activity of PSA (in words): synthetic peptides in 100-fold molar excess
T1 sequence (P07288 25-261): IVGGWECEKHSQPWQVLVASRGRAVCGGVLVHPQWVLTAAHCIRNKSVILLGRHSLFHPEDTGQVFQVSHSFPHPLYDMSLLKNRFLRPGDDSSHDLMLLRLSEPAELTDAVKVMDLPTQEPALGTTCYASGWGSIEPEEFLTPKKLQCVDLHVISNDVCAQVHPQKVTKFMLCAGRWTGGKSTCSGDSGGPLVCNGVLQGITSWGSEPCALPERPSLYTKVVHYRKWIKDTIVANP
Procedure: The enzyme activity of PSA was studied in the presence of peptides alone or together with Zn^2+ by using the chymotrypsin substrate S-2586 (MeO-Suc-Arg-Pro-Tyr-pNA) (Chromogenix, Mölndal, Sweden). […] PSA (333 nM) was incubated with a 1-100-fold molar excess of GST-peptide or 100-fold excess of synthetic peptide in TBS buffer, pH 7.8 containing 0.5 g/L BSA for 1 h at 22° C. The effect of Zn^2+ on the enzyme activity of PSA was studied by including 1-200 μM of ZnCl2 in the reaction buffer. The combined effect of peptides and Zn2+ on the enzyme activity of PSA was studied by incubating PSA (333 nM) with peptide (333 nM) in the buffer containing 1-200 μM Zn^2+ for 1 h. After addition of substrate to a final concentration 0.2 mM, the absorbance was monitored at 5-min intervals for 2 h at 405 nm on a Labsystems Multiskan MCC/340 photometer (Labsystems, Helsinki, Finland). As a control, the effect of wild type GST on the enzyme activity of PSA was tested.
In the experiments, PSA (0.33 μM) was incubated with increasing concentrations of GST-C-4 (0-100-fold molar excess) for 1 h, after which the chromogenic substrate S-2586 was added and enzyme activity was monitored by measuring the absorbance at 405 nm. Data represent mean values from duplicate wells ±SE.
PSA (0.33 μM) was incubated with chemically synthesized peptides (100-fold molar excess) for 1 h, after which the chromogenic substrate S-2586 was added and enzyme activity was monitored by measuring the absorbance at 405 nm.
Because zinc is known to inhibit the enzyme activity of PSA, we further characterized the effect of GST-peptides on the enzyme activity of PSA by assessing the combined effect of peptides and Zn^2+. […] The effect of GST-C-4 and Zn^2+ on enzyme activity was determined by incubating PSA (0.33 μM) with the same molar concentration of GST-C-4 and various concentrations of Zn^2+. The reaction was monitored by measuring absorbance at 405 nm after addition of the chromogenic substrate S-2586. […] Data represent mean values from duplicate wells ±SE.
(§1) Data represent mean values from duplicate wells ±SE.
As control the enzyme activity of PSA alone was measured.
as §1
20 μg of the peptide was iodinated by the Iodogen method. After iodination the peptide was purified by using C18 Sep-Pak column.

PSA [2] = target: T1, PSA; experiment: Inhibition of GST-peptide binding to PSA by chemically synthesized peptides; parameters: PSA was purified from human seminal fluid as described previously (3); from tissue; settings: synthetic peptide GACVAYCIEHHCWTCGA in 20-fold molar excess
Procedure: Peptides A1 and C4 were synthesized by standard solid phase Merrifield peptide synthesis using fmoc-chemistry. The peptides were assayed for binding with PSA by studying the ability of the synthetic peptide to inhibit the binding of the corresponding GST peptide with PSA. Synthetic peptide (0-333 nM) and the corresponding GST peptide (167 nM) were incubated with PSA captured by MAb 5E4 for 1 h. After this, the wells were washed, after which Eu^3+-labeled anti GST antibody was added. After further incubation and washing the bound fluorescence was measured as described above.
PSA had been captured by anti-PSA MAb in the microtitration wells. The binding was measured by IFMA.

PSA [3] = target: T1, PSA; experiment: Proteolytic cleavage of IGF-BP-3 by PSA, IGF-BP-3 IFMA; assay type: biochemical; parameters: PSA was purified from human seminal fluid as described previously (3); from tissue; host or cells: human seminal fluid; settings: PSA 5 μg/mL, 100-fold molar excess of synthetic peptide, IGF-BP-3 70 ng/mL, 16 h at 37° C.; PSA alone 30%
Procedure: The extent of the cleavage of the substrate was quantitated by monitoring the decrease in IGF-BP-3 immunoreactivity due to proteolytic cleavage of it. PSA (5 μg/mL) was incubated with IGF-BP-3 (70 ng/mL) for 16 h at 37° C. with 100-fold molar excess of peptides to PSA and measured for IGF-BP3 immunoreactivity by IFMA as described (33). As control, the peptide was also added to the reaction mixture containing PSA and IGF-BP3 just before starting the immunoassay to quantify the possible interference of the peptide in the IFMA for IGF-BP-3.
In the experiments, PSA (5 μg/mL) in TBS buffer, pH 7.8 alone or with 100-fold molar excess of peptide was incubated with IGF-BP-3 (70 ng/mL) for 16 h at 37° C., after which the concentration of intact IGF-BP-3 was determined by IFMA.

PSA [4] = target: T1, PSA; experiment: GST-peptide IFMA: binding of GST-peptides to PSA captured by MAb 5E4; parameters: PSA was purified from human seminal fluid as described previously (3); from tissue; host or cells: human seminal fluid; settings: GST fusion proteins
Procedure: After washing the binding of GST-peptide was quantified by IFMA using an Eu-labelled anti GST antibody as tracer. Data represent mean values from duplicate wells ±standard error (SE).
The solid phase antibodies used in the IFMAs were coated onto microtitration wells at a concentration of 5 μg/mL in TBS for 16 h at 22° C., the solution was discarded and the wells were saturated with 10 g/L bovine serum albumin in TBS for 3 h at 22° C. The antibodies used as tracers were labeled with a Eu^3+ chelate as described previously (26). The assay buffer was 50 mM Tris-HCL, pH 7.7, 150 mM NaCl, 33.3 μM bovine serum albumin, 1 μM bovine globulin.
The binding of individual phage clones to PSA was tested by IFMA (phage IFMA). In the phage IFMA, about 30 ng of PSA was added to MAb 5E4 coated wells for 1 h. After washing (Buffer: 150 mM NaCl, 7.7 mM NaN3, 0.2 g/L Tween 20), 15 μL of phage and 200 μl assay buffer was added. After incubation for 1 h, the wells were washed and filled with 200 μl of assay buffer containing 50 ng europium-labeled anti phage monoclonal antibody recognizing the M13 coat protein of the phage. After incubation for 60 min, the wells were washed 4 times, and enhancement solution (EG&G-Wallac) was added. The fluorescence was quantified with a 1234 DELFIA Research fluorometer (EG&G-Wallac). Binding of GST-peptide to PSA was determined by an IFMA (GST-peptide IFMA) similar to the one for phage peptides except that Eu^3+-labeled antibody to GST was used. Various amounts of GST-peptide or wild type GST were added to wells containing captured PSA in 200 μL of assay buffer and incubated for 1 h. To test the effect of Zn^2+ on the binding between GST-peptide and PSA, various concentrations of Zn^2+ (1-200 μM) were added to the buffer in the incubation step of GST-peptide and PSA. In competition experiments, GST-peptide (167 nM) or wild type GST were first incubated with increasing amounts of PSA (0-333 nM) in 0.5% BSA-TBS buffer for 60 min, then added to wells containing PSA captured by MAb 5E4. After incubation for 1 h the wells were washed and Eu^3+-labeled anti GST antibody was added. After further incubation and washing the bound fluorescence was measured as described above. When assessing the binding of the GST-peptides to other proteinases, including chymotrypsin, cathepsin G, trypsin, and kallikrein, these proteinases were captured by their specific antibodies coated to the microtitration well. Recombinant hK2 was captured by MAb 5E4, which is known to bind hK2 (24). For assessing the binding of the GST-peptides with complexes of PSA, including PSA-ACT and PSA-α1-protease inhibitor (PSA-API) (28), the complexes were captured by antibodies against ACT and API, respectively. After capturing the various proteinases or PSA complexes, GST-peptide was added and binding was monitored as described above for the GST-peptide IFMA.

PSA [5] = target: T1, PSA; experiment: PSA activity measurements with modified peptides, substrate S-2586 (Example 5); assay type: biochemical; parameters: PSA was purified from human seminal fluid as described previously (3); from tissue; host or cells: human seminal fluid; key to activity of modified peptide (active / inactive): PSA-peptide/PSA ratio above 1.1 was interpreted to be active; below 1.1 as inactive; settings: for activity of modified peptide (active / inactive): from PSA-peptide/PSA ratio; for effect of modification on the activity of the peptide (in words): compared with parent A-1, B-2 or C-4
Procedure: PSA activity measurements: The effect of different peptides on the activity of PSA was studied by using chymotrypsin substrate S-2586 (MeO-Suc-Arg-Pro-Tyr-pNA) (Chromogenix, Mölndal, Sweden). 77 pmoles (2 μg) of PSA, substrate and 10 μmoles of different peptides were incubated in Tris-buffer (10 mM Tris and 150 mM NaCl at pH 7.8) with 0.2 mM concentration of the substrate at room temperature. PSA reaction without any peptide was used as basic level control. Reaction was measured after 60 minutes incubation at […] using Multiscan RC photometer (Labsystems, Finland). The effect of the peptides was calculated as a ratio from the OD value of PSA-peptide complex to PSA alone after 60 minutes incubation.

1251-labeled C4: C4-peptide (CVAYCIEHHCWTC) iodinated by the Iodogen method (not fully specified (residue 4, bridges); cysteine pairing not given here)
effect of derivatization or labeling on PSA binding activity, read as effect on PSA enzyme activity (in words) (PSA [1]; 30-fold molar excess): almost completely destroyed its binding activity

CC[C@H](C)[C@@H]1NC(=O)[C@@H]2CSSC[C@H](NC(=O)[C@H](Cc3c[nH]cn3)NC(=O)[C@H](Cc3c[nH]cn3)NC(=O)[C@H](CCC(=O)O)NC1=O)C(=O)N[C@@H](Cc1c[nH]c3ccccc13)C(=O)N[C@@H]([C@@H](C)O)C(=O)N[C@H](C(=O)O)CSSC[C@H](N)C(=O)N[C@@H](C(C)C)C(=O)N[C@@H](C)C(=O)N[C@@H](Cc1ccc(O)cc1)C(=O)N2 [Peptide C-4] (H-CVAYCIEHHCWTC-OH; disulfide 1-13, 5-10; N-terminus and C-terminus assumed)
inhibition of the binding of the corresponding GST-peptide to PSA (PSA [2]): about 70%
cleavage of IGF-BP-3 by PSA in the presence of peptide (PSA [3]): about 70%

CLSTCAQSCRISC [Peptide D-1]
binding to PSA in GST-peptide IFMA (in words) (PSA [4]): did not show significant binding

CVAYAIQHHC (disulfide 1-10 (inferred)) [Peptide C-4-4]
activity of modified peptide (active / inactive) (PSA [5]): inactive

CVAYCIEHHCATC [Peptide C-4-6]
activity of modified peptide (active / inactive) (PSA [5]): inactive

CVAYCIQHHCWTC [Peptide C-4-3]
effect of modification on the activity of the peptide (in words) (PSA [5]): did not affect
activity of modified peptide (active / inactive) (PSA [5]): active

CVFAHNYNALVC (disulfide 1-12 (inferred)) [Peptide B-2-3]
effect of modification on the activity of the peptide (in words) (PSA [5]): activity remained

CVFAHNYNYLVC (disulfide 1-12 (inferred)) [Peptide B-2-2]
effect of modification on the activity of the peptide (in words) (PSA [5]): did not affect

CVFTSNYAFC (disulfide 1-10 (inferred)) [Peptide A-1-4]
effect of modification on the activity of the peptide (in words) (PSA [5]): did not affect

CVFTSNYAYC (disulfide 1-10 (inferred)) [Peptide A-1-2]
effect of modification on the activity of the peptide (in words) (PSA [5]): did not affect

CVFTSNYNYC (disulfide 1-10 (inferred)) [Peptide A-1-3]
effect of modification on the activity of the peptide (in words) (PSA [5]): did not affect

Eu-labelled C4-peptide: C4 peptide labelled with Eu-chelate, C18 fractions 26-28 (CVAYCIEHHCWTC; disulfide 1-13, 5-10; also: Eu-chelate label, site not given here)
effect of Eu-labelled peptide fractions on enzyme activity of PSA (PSA [1]; PSA 0.33 μM, 100 μL of C18 fractions 26-28): enhanced the enzyme activity of PSA strongly

SKSKSKS—aca-CVAYCIEHHCWTC (SKSKSKS[Ahx]CVAYCIEHHCWTC; not fully specified (bridges); printed as SKSKSKS—aca-CVAYCIEHHCWTC; cysteine pairing not given here) [SKSKSKS (SEQ ID NO:47)-tailed C4]
effect of derivatization or labeling on PSA binding activity, read as effect on PSA enzyme activity (in words) (PSA [1]; 30-fold molar excess): did not affect the binding activity

Tc99m-labeled C4: reduced C4-peptide labeled with 99mTc between thiol-sulfurs (HDP method) (CVAYCIEHHCWTC; also: 99mTc complexed between reduced thiol sulfurs (HDP method))
reduction of binding by technetium labeling (PSA [1]; PSA 0.33 μM, 30-fold molar excess, compared with unlabelled C4): about 50%

Wild type GST: wild type glutathione S-transferase without inserted peptide, control [reference compound]
binding to PSA in GST-peptide IFMA (in words) (PSA [4]): did not bind
effect on the enzyme activity of PSA (in words) (PSA [1]): did not affect
effect on the enzyme activity of PSA (in words) (PSA [1]; listed as wild type GST): no effect
